Results: the RNAGym collection of RNA variant scans (doi:10.1021/acssynbio.7b00057)

B1: Pistol ribozyme (parent)
chain: GGGUCGUUGUUCCAUAAUCGCGUGGAUAUGGCACGCAAGUUUCUACCGGGCACCGUAAAUGUCCGACUGGAGCCGUUCGGGCGGCUAUAAACAGACCUCAGGCCCGAAGCGUGGCGGCACCUGCCGCCGGUGGUAAAAAAGAUCGGAAGAGCACACGUCU

Variants of: B1
Experiment: aptazyme ON/OFF ratio, guanine; higher = stronger switching; co-transcriptional cleavage with and without guanine

Variant	aptazyme ON/OFF ratio
U8A U10A U11G C12G C13A	1.06
U8A U10A U11G C12G C13G	1.15
U8A U10C U11G C13A	1.21
U8A U10C U11G C13G	1.13
U8A U10C U11G C13U	1.19
U8A U11A C12G C13U	1.17
U8A U11A C12G C13A	1.18
U8A U11A C12G C13G	1.06
U8A G9U U11G C12U C13G	1.19
U8A G9U U11G C12U C13U	1.5
U8A G9U U11G C12U C13A	1.41
U8A U10C U11G C12U	1.37
U8A U10C U11G C12G	1.23
U8A U10C U11G C12A	1.09
U8A U10G U11G	1.16
U8A U10G U11A	1.09
U8A U10G U11C	1.02
U8A U10A U11G	1.17
U8A U10A U11A	1.14
U8A U10A U11C	1
U8A U10C U11A C12A	1.13
U8A U10C U11A C12G	1.19
U8A U10C U11A C12U	1.2
U8A G9U U11A C12U C13A	1.52

Variant	aptazyme ON/OFF ratio
U8A G9U U11A C12U C13U	1.08
U8A G9U U11A C12U C13G	1.09
U8A U11C C12A C13G	1.17
U8A U11C C12A C13U	1.38
U8A U11C C12A C13A	1.24
U8A U10C U11C C12U C13U	1.04
U8A U10C U11C C12U C13A	1.05
U8A U10C U11C C12U C13G	1.06
U8A G9U U10G U11A C12A C13A	1.22
U8A G9U U10G U11A C12A C13G	1.16
U8A G9U U10G U11A C12A C13U	1.47
U8A U11C C12G C13G	1.32
U8A U11C C12G C13U	1.12
U8A U11C C12G C13A	1.31
U8A U10G C12A	1.31
U8A U10G C12U	1.58
U8A U10G C12G	1.29
U8A U10C C12U	3.12
U8A U10C C12G	1.3
U8A U10C C12A	1.31
U8A U11A C13U	1.15
U8A U11A C13A	1.19
U8A U11A C13G	1.05
U8A U10C U11A C12G C13G	1.39

Variant	aptazyme ON/OFF ratio
U8A U10C U11A C12G C13A	1.15
U8A U10C U11A C12G C13U	1.34
U8A G9U U11A C13U	1.24
U8A G9U U11A C13G	1.13
U8A G9U U11A C13A	1.1
U8A U10C C12G C13A	1.19
U8A U10C C12G C13G	1.45
U8A U10C C12G C13U	1.44
U8A U10G U11G C12A	1.11
U8A U10G U11G C12G	1.23
U8A U10G U11G C12U	1.48
U8A U10A C13A	1.05
U8A U10A C13G	1.06
U8A U10A C13U	1.03
U8A U10G U11A C13G	1.12
U8A U10G U11A C13U	1.13
U8A U10G U11A C13A	1.07
U8A U10A U11A C12U C13G	1.09
U8A U10A U11A C12U C13U	1.17
U8A U10A U11A C12U C13A	1.2
U8A U10G C12U C13A	1.32
U8A U10G C12U C13U	1.36
U8A U10G C12U C13G	1.23
U8A G9U U11C C12G	1.08

Variant	aptazyme ON/OFF ratio
U8A G9U U11C C12A	1
U8A G9U U11C C12U	1.13
U8A G9U U11A C12A C13G	1.18
U8A G9U U11A C12A C13U	1.38
U8A G9U U11A C12A C13A	1.22
U8A U10G U11A C12G C13A	1.2
U8A U10G U11A C12G C13U	1.15
U8A U10G U11A C12G C13G	1.51
U8A U10A C12G C13U	1.37
U8A U10A C12G C13G	1.19
U8A U10A C12G C13A	1.15
U8A U10C U11G C12U C13G	1.2
U8A U10C U11G C12U C13U	1.27
U8A U10C U11G C12U C13A	1.26
U8A U10G U11C C12A	1.49
U8A U10G U11C C12G	1.53
U8A U10G U11C C12U	1.04
U8A U10C U11C C13G	1.04
U8A U10C U11C C13A	1.01
U8A U10C U11C C13U	1.02
U8A U10A U11A C12A C13G	1.04
U8A U10A U11A C12A C13A	1.21
U8A U10A U11A C12A C13U	1.11
U8A G9U U11G C12G C13A	1.25

Variant	aptazyme ON/OFF ratio
U8A G9U U11G C12G C13G	1.24
U8A G9U U11G C12G C13U	1.16
U8A U10A C12G	1.16
U8A U10A C12A	1.11
U8A U10A C12U	1.11
U8A U10G C13G	1.23
U8A U10G C13A	1.52
U8A U10G C13U	1.18
U8A U10G U11G C12A C13A	1.18
U8A U10G U11G C12A C13U	1.44
U8A U10G U11G C12A C13G	1.15
U8A G9U U11C C12A C13A	1.14
U8A G9U U11C C12A C13U	1.11
U8A G9U U11C C12A C13G	1.07
U8A U11G C12A C13U	1.2
U8A U11G C12A C13G	1.17
U8A U11G C12A C13A	1.15
U8A U11C C13U	1.09
U8A U11C C13A	1.13
U8A U11C C13G	1.08
U8A U10A U11C C12U C13A	1.08
U8A U10A U11C C12U C13U	1.06
U8A U10A U11C C12U C13G	1.09
U8A U10G U11G C12G C13G	1.06

Variant	aptazyme ON/OFF ratio
U8A U10G U11G C12G C13A	1.45
U8A U10G U11G C12G C13U	1.32
U8A U11C C12U C13A	1.38
U8A U11C C12U C13U	1.37
U8A U11C C12U C13G	1.33
U8A U10A U11C C12G C13A	1.1
U8A U10A U11C C12G C13G	1.27
U8A U10A U11C C12G C13U	1.16
U8A G9U U11A C12U	1.47
U8A G9U U11A C12G	1.09
U8A G9U U11A C12A	1.28
U8A U10G U11C C12U C13G	1.27
U8A U10G U11C C12U C13U	1.2
U8A U10G U11C C12U C13A	1.3
U8A U10A U11G C12U	1.52
U8A U10A U11G C12G	1.36
U8A U10A U11G C12A	1.12
U8A U10A U11A C12G	1.07
U8A U10A U11A C12U	1.09
U8A U10A U11A C12A	1.14
U8A G9U U10G U11C C12G C13A	1.08
U8A G9U U10G U11C C12G C13G	1.07
U8A G9U U10G U11C C12G C13U	1.12
U8A G9U U10G U11C C12A C13U	1.15

Variant	aptazyme ON/OFF ratio
U8A G9U U10G U11C C12A C13A	1.09
U8A G9U U10G U11C C12A C13G	1.03
U8A G9U U11G C13U	1.24
U8A G9U U11G C13A	1.14
U8A G9U U11G C13G	1.08
U8A U10C U11A C13A	1.17
U8A U10C U11A C13U	1.07
U8A U10C U11A C13G	1.07
U8A U10C U11G C12A C13A	1.26
U8A U10C U11G C12A C13G	1.23
U8A U10C U11G C12A C13U	1.25
U8A U10A U11C C13U	1.04
U8A U10A U11C C13A	1.03
U8A U10A U11C C13G	1.02
U8A G9U U11A	1.79
U8A G9U U11G	1.63
U8A G9U U11C	1.03
U8A U10G U11C C12G C13U	1.38
U8A U10G U11C C12G C13G	1.25
U8A U10G U11C C12G C13A	1.41
U8A G9U U10G U11A C12G	1.28
U8A G9U U10G U11A C12A	1.21
U8A G9U U10G U11A C12U	1.05
